Results: patent US7244706

Legend:
[1] = target: human lactoferrin (LF), intact, purified from human milk/colostrum (UniProt P02788)
Sequence of human lactoferrin (LF), intact, purified from human milk/colostrum (P02788 20-710): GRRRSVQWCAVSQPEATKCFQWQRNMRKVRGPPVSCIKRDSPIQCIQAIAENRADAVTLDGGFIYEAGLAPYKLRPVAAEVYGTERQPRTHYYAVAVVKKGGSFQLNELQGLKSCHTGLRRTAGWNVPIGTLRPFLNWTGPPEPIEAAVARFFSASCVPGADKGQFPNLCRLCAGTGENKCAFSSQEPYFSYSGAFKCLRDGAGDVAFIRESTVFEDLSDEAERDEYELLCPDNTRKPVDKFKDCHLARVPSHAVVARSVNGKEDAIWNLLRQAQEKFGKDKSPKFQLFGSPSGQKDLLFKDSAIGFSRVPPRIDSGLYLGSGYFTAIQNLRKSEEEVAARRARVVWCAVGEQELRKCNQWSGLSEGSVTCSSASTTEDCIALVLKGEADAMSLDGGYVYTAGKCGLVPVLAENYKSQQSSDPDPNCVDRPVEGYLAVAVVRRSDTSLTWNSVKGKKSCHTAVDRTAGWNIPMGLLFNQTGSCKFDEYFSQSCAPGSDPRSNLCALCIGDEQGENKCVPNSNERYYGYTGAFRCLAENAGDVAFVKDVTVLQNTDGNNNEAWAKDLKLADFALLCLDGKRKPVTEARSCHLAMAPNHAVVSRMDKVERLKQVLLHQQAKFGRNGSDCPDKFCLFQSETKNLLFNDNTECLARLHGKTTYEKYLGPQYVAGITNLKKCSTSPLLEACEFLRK

Sequence of bovine spleen cathepsin D (Sigma) (chain, as listed by the source): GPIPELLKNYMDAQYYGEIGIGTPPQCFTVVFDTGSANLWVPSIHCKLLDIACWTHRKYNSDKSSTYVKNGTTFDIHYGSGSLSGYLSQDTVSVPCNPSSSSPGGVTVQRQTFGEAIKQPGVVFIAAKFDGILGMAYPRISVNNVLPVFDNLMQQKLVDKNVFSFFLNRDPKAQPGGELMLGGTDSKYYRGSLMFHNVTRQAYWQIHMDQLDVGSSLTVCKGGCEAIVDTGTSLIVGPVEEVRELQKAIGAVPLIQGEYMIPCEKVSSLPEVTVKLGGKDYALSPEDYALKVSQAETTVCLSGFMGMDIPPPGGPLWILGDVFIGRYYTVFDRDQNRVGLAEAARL

Substance: bovine spleen cathepsin D (Sigma)
- loss of proteolytic release of the 6 kDa fragment from LF, seen by immunoblot (pepstatin A): incubations of LF performed in the absence of cathepsin D or in the presence of pepstatin A, an inhibitor of cathepsin D, failed to identify a 6 kDa fragment
- proteolytic release of the N-terminal 6 kDa polypeptide, seen by immunoblot [1]: Exposure of either iron-saturated or iron-free LF to even small amounts of cathepsin D ( 1/200th, w:w) for a period as brief as five minutes yielded the N-terminal 6 kDa polypeptide
